Reference: publication PMC6763431, “Methionine in a protein hydrophobic core drives tight interactions required for assembly of spider silk” (Nature Communications, 2019)

T1: AttoOxa11-modified L6-NTD mutant Q50C (Euprosthenops australis, AttoOxa11 (maleimide derivative) on the thiol of the engineered cysteine at position 50)
T1 chain: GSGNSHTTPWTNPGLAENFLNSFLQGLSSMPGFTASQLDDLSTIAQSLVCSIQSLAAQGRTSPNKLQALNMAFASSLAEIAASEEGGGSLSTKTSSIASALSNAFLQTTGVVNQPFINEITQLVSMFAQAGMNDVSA

T2: wild-type N-terminal domain of major ampullate spidroin 1 (MaSp1) from Euprosthenops australis (Euprosthenops australis), Q05H60
T2 chain: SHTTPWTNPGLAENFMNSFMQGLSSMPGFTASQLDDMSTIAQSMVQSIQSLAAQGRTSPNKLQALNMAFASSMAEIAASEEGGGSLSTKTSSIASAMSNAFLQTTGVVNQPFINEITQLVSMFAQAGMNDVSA

B1: L6-NTD (MaSp1 NTD from E. australis with all six core Met mutated to Leu) (domain or fragment)
chain: GSGNSHTTPWTNPGLAENFLNSFLQGLSSMPGFTASQLDDLSTIAQSLVQSIQSLAAQGRTSPNKLQALNMAFASSLAEIAASEEGGGSLSTKTSSIASALSNAFLQTTGVVNQPFINEITQLVSMFAQAGMNDVSA
B2: wild-type N-terminal domain of major ampullate spidroin 1 (MaSp1) from Euprosthenops australis, Q05H60 24-156 (domain or fragment)
chain: SHTTPWTNPGLAENFMNSFMQGLSSMPGFTASQLDDMSTIAQSMVQSIQSLAAQGRTSPNKLQALNMAFASSMAEIAASEEGGGSLSTKTSSIASAMSNAFLQTTGVVNQPFINEITQLVSMFAQAGMNDVSA

Columns and labels:
[1] = target: T1, AttoOxa11-modified L6-NTD mutant Q50C; test: MST; 40 nM AttoOxa11-modified L6-NTD Q50C with increasing concentrations of unlabelled L6-NTD, standard untreated capillaries, 50% heating power; bimolecular binding isotherm (pseudo-dimerization); conditions: both partners purified
[2] = target: the molecule itself; test: SEC; high-resolution SEC with Trp fluorescence detection, Superdex-75 Increase 10/300, 0.8 ml/min, 20 mM MES, pH 6.0, ionic strength 20 mM (KCl); elution volume against protein concentration fitted to a monomer/dimer equilibrium; dimer to monomers
[3] = target: T2, wild-type N-terminal domain of major …; test: SEC-MALS; 20 mM MES, pH 6.0, ionic strength 60 mM (KCl), dimer conditions; µM sample concentration; dimer to monomers; conditions: remark: other sources report otherwise

| Binder | Kd [1] | Kd [2] | stoichiometry N [3] |
| --- | --- | --- | --- |
| B1 | 3600 ± 1800 nM | 1100 nM |  |
| B2 |  |  | 2 |
